Experiment: yeast display, Sf9 membrane polyspecificity reagent, FACS + sequencing; frameworks hold sequencing errors
How it was run: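 Polyreactivity labels are assigned by the sorting gate from which each nanobody was recovered. The gates were low and high (top ~1%), set on anti-HA fluorescence for expression and streptavidin fluorescence for reagent binding. Before sorting, galactose-induced (36–48 hours) yeast display cells were stained for 1 hour at 4 °C with 10% biotinylated, detergent-solubilized Sf9 membrane reagent.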

Sequence	polyreactivity (PSR sort gate)
QVQLVESGGGLVQAGGSLRLSCAASGGIFRHNAMGWYRQAPGKEREFVAAISRSGGNTYYADSVKGRFTISRDNAKNTVYLQMNSLKPEDTAVYYCNKIEYDSWADHVYWGQGTQVTVSS	low polyreactivity
QVQLVESGGGLVQAGGSLRLSCAASGSTFYTNAMGWYRQAPGKERELVAAISASVGSTYYADSVKGRFTISRDNAKNTVYLQMNSLKPEDTAVYNCAADVWASRRYDYWGQGTQVTLSS	low polyreactivity
QVQLVESGGGLVQAGGSLRLSCAASGSTFVQNDMGWYIPAPGKERELVAAISRTGGSTYYADSVKGRFTISRDNAKNTVYLQMNSLKPEDTAVYYCARRYYYQYRYDYWGQGTQVTVSS	high polyreactivity
QVQLVESGGGLVQAGGSLRLSCAASGYTFAWYTMGWYRQAPGKERELVAAISASGVRTYYADSVKGRFTISRDNAKNTVYLQMNSLKPQDTAVYYCNRVYSTSRITQYEFDYWGQGTQVTVSS	low polyreactivity
QVQLVESGGGLVQAGGSLRLSCAASGSIFLENTMGWYRQAPGKERELVAAITSSGDSTYADSVKGRFTISRDNAKNTVYLQMNSLKPEDTAVYYCNKDYDDIAPTRAVLDRYDYWGQGTQVTVSS	low polyreactivity
QVQLVESGGGLVQAGGSLRLSCAASGRIIGLYAMGWYRQAPGKEMELVAAISSAGSTYYADSVKGRFTISRDNAKNTVYLQMNSLKTEDTAVYYCDKSRYRGYDYWGQGTQVTVSS	low polyreactivity
QVQLVESGGGLDQAGGSLRLSCAASGFTFAYNARGRYRQAPGKERELVAAITTRGGGTYYADSVKGRFTISRDNAKYTVYLQMNSLKPEDTAVYYCAAKKSRYPYNYWGQGTQVTVSS	high polyreactivity
QVQLVESGGGLVQAGGSLRLSCAASGLTLSGYAMGWYRQAPGKERELVAAISSTGGSTYYADSVKGRFTISRDNAKNTVYLQMNSLKPEATAVYYCAKGYSPTRVRLRYPRYDTYNHWGQVTQVTVSS	high polyreactivity
QVQIEESGGCLVQAGGSLRLTCAASGRIISWNAMGWSRQAPGKERELVAGITWNGGRTYYADSVKGRFTISRDNVKNTVYLQMNSLKPEDTAVFSCNAERFDLTYNYWGQGTQVTVSS	high polyreactivity
QVQLVESGGGLVQAGGSLRLSCAASGRIFAGYTMGWYRPAPGKERELVAAIRSSGRTHYADSVKGRFTISRDNAKNTVYLQMYSLKPEDTAVYYCAARWTYTFAYRFDYWGQGTQVTVSS	high polyreactivity
QVQLVESGGGLVQAGGSLRLSCAASGYIFPKNAIGWYRQAPWKERELVAAITGSGGSTYYADSVKGRFTISRDNAKNTVYLQMNSLKPEDTAVYYCAKRSWIEYDYWGQGTQVTVSS	low polyreactivity
QVQLVESGGGIVQAGGSLRISCAASGYNFRYNAMGWYRQAPGKERELVATITRGGSTNYPDSVKGRFTISRDNAKNTVYLQMNSMKPEDTAVYYCKKEAAPLGFVPSYYGRDYWGQGTQVTVSS	low polyreactivity
QVQLVESGGGLVQAGGSLRLSCAASGIFRYYAMGWYRQAPGKERELVATITRSSGSTYYADSVKGRFTISRDNAKNTVYLQMNSLKPEDTAVYYCAARGPYFNRGTRYDYWGQGTQVTVSS	high polyreactivity
QVQLVESGGGLVQAGGSLRLSCAASGIIFGVYAMGWYRQAPGKERELVAAISWTGGSTFYADSVKGRFTISRDNAKITVYLQMNILKPEDTAVYYCAVDYWSGITWVEYWGQGTQVTVSS	high polyreactivity
QVQLVESGGGLVQAGGSLRLSCAASGLIFQYYAMGWYRQAPGKERELVAAISGSGVRSYYADSVKGRFTTSRDNAKNTVYLQMNSLKPEDTAVYYCNTLRQDIIRGDYWGQGTHVTVSS	high polyreactivity
QVQLVESGGGLVQAGGSLRLSCAASGRTFPLYAMGWYRQAPGKERELVAAISYICGSTYYADSVKGLFTISRDNAKNTVYLQMNSLKPEDTAVYYCNADYNYAYDYWGQGTQVTVSS	low polyreactivity
QVQLVESGGGLVQAGGSLRLSCAASGFTFPYNAMGWYRQAPGKERELVAAISRGGGRTYYADSVKGRFTISRDNAKNTVYLQMNSLKPEDTAVYYCAKAPGQDTPYPYGYWGQGTQVTVSS	high polyreactivity
QVQLVESGGGLVQAGGSLRLSCAASGRIFVRNAMGWYRQAPGKERELVAAISWRGTSTYYADSVKGRFTISRDNAKNTVYLQMNSLKPEDTAVYYCAKRISGYRGDYWGQGTQVTVSS	high polyreactivity
HVQLQESGGGMVQASGSPRLSCPASGNIFDADIMGWYRQAPGKQCELVASITDGGSTNYADSEKGRFTISSDNAKNTVYLQMNSLKPEDTAVYYCAAIAYPDIPTYFDYDSDYFYWGQGTHVTVSS	high polyreactivity
QVQLVESGGGLVQAGGSLRLSCAASGSTFKRNAMGWYRQATGKERELVAAISTNGGRTYYADSVKGRFTISRDNAKNTVYLQMNSLKPEDTAVYYCAVDLFDGVTKLNYDYWGQGTQVTVSS	low polyreactivity
QVQLVESGGGLVQAGGSLRLSCAASGYIFRGYVMGWYRQAPGKERELVAAITSRGDSTYYADSVKGRFTISRDNAKNTVYLQMNSLKPEDTAVYYCNAVHYYVEYDYWGQGTEVTVSS	high polyreactivity
QVQLVESGGGLVQAGGSLRLSCAASGSIFGYNAMGWYRQAPGKERELVAAISLTTGSTYYADSVKGRFTISRDNAKNTVYLQMNCLKPEDTAVYYCAAVDADYYYWGQGTQVTVSS	high polyreactivity

Sequence	polyreactivity (PSR sort gate)
QVQLVESGGGLVQAGGSLRLSCAASGFIFQPYAMGWYRPAPGKERELVAGITGSGGNTYYADSVKGRFTISRDNAKNTVYLQMNSLKPEDTAVYYCAARRHIFLLIIWSGRVDYWGQGTEVTVSS	low polyreactivity
QVQLVESGGGLVQAGGSLRLSCAASGRTQYKYAMGWYRQAPGKERELVATISSGGRTKYADSVKGRFTISRDNAKNTVDLQMNSLKPEDTAVYYCAAQNRPRYYSGDYWGQGTQVTVSS	low polyreactivity
QVQLVESGGGLVQAGGSLRLSCAASGSTFLHYAMGWYRQAPGKERELVAAISRRGGRTYYADSVKGRFTISRDNAKNTVYLQMNSLKPEDTAVYYCAVDGIRDGYWIFYYWGQGTQVTVSS	low polyreactivity
QVQLVESGGGLVQAGGSLRLSCAASGLTFYSNAMRWYRQAPGKEREVVARISTGGSTYADSVKGRFTISRDNAKKTVYLQMNSLKPQDTEVYYCAKLPPRGIDDEYWGQGTQVTVSS	low polyreactivity
QVQLVESGGGLVQAGGSLRLSCAASGSTFYRNAMGWYRQAPGKERELVAAITWSGGTTYYADSVKGRFTISRDNAKNTVYLQMNSLKPEDTAVYYCAARFILAPRRGYNAYKYYYWGQGTQVTVSS	high polyreactivity
QVLLVESGGGLVQAGGSLRLSCAASGRIFGYNTMGWYRQAPGKERELVASISYSGGGTYYADSVKGRFTISRDNAKNTVYLQMNSLKPEDTAVYYCNALSYGYDDAYGYWGQGTQVTVSS	low polyreactivity
QVQLVESGGGSVQAGGSLRLSCAASGRTFVRYAMGWYRQAPGKERELVAAITWSGGSTYYADSVKGRFTISRDNAKNTVYLQMNSLKPEDTAVFDCAAYPVQWGSLYDYWGQGTQVTVSS	high polyreactivity
QVQLVESGGGLVQAGGSLRLSCAASGRTFGINAMGWYRQAPGKETELVAVISFGDGGTYYADSVKGRFTISRDNAKNTVYLQMNSLTPEDTAVYYCATDYQSTSVWGGHFVINPYDYWGQGTQVTVSS	low polyreactivity
QVKLVESGGGLVQAGCSLRISCAASGITFKNYAMGWYRQAHGKERELVAAIRSIAGRTNYADSVKGRFTISRDYANNTVYLKMNSLKPEDTAVYYFTAANRGQRSDYRGYYYWGQGTQVTVSS	high polyreactivity
QVQLVESGGGLVQAGGSLRLSCDASGSTFRGYAMGWYRQAPGKERDLVAAISRYGGSTYYADSVKGRFTISRDNAKTTVYIQMNSLKPEDTAGYYCNARSSKRSSRGYDYWGQGTQVTVSS	high polyreactivity
QVQLVESGGGLVQAGGSLRLSCAASGRIFLYYAMGWYRQAPGKERELVAAISSGGSTYYADSVKGRFTISRDNAKNTVYLQMNSLKPEDTAVYYCATPSGRWGHYGYWGQGTQVTVSS	low polyreactivity
QVQLVESGGGLVQAGGSLRLSCAASGSIFPYYAMGWYRPAPGKERELVAAISSGGSTNYADSVKGRFTISRDNAKNTVYLEMNSLKPEDTAVYYCAARWSRLFRHRVNYWYDYWGQGTQVTVSS	high polyreactivity
QVQLVESGGGLVQAGGSLRLSCAASGRTIYKYMGWDRQAPGKERELVAAIRWSGGSTYYADSVKGRFTISRDNAKNTVYLQMNSLKPEETAVYYCNVDSYGYKYDYWGQGTQVTVSS	low polyreactivity
QVQLVESGGGLVQAGGSLRLSCAASGSIFYTNAMGWYRQAPGKERELVAAIRWSGGRTYYADSVKGRFTISRDNAKNTVYLQMNSLKPEDTAVYYCNVVVRYPSAYDYWGQGTQVTVSS	high polyreactivity
QVQLVESGGGLVQAGGSLRLSCAASGSIFDVNTMGWYSQAPGKERELVAGITSRGGSTYYADSVKGRFTISRDNAKNTVYLQMNSLKPEDTAVYYCAKRAYGTALYRGYGYWGQGTQVTVSS	low polyreactivity
QVQLVESGGGLVQAGGSLRLSCAASGRTFWAYAMGWYRPAPGKERELVSAITTSGGSTNYADSVKGRFTISRDNAKNTVYLHMIRLKPEDTAVYYCNADPTYHVVNGVGYWGQGTQVTVSS	low polyreactivity
QVQLVESGGGLVQAGGSLRLSCAASGSTISRNAMGWYRQAPGKERELVAAITSRSGRTYYADSVKGRFTISRDNAKNTVYLQMNSLKPEDTAVYYCAATVYQGAYTYQFYWGQGTQVTVSS	high polyreactivity
QVQLVESGGGLVQAGGSLRLRCATSGSIFRIYAMGWYRQAPGKERELVAAIDSGGSTNYADYVKGRFTISRDNAKNTVYFQMNCLKPEDTAVFYCNVEAWWLSYSEYDYWGQGTQVTVSS	high polyreactivity
QVQLVESGGGFVQAGGSLRLSCAASGRNFFSNAMGWYRQAPGNEWELVASITSRGGTTYYADSVKGRFTISSYNAKNPVYLQMNSVKPEDTAVYYCAALRRSYFGYWGQVTQVTVSS	high polyreactivity
QVQLVESGGGLVQAGGSLRLSCAPSGITFLANTMGGYRQAPGKERELVATITSSGGSTYYADSVKGRFTISRDNAKNTVYLQMNSLKPEDTAGYYCADSDLRYRGNYVYLPSEYWGQGSQVTVSS	low polyreactivity
QEQLVESGGGLVQAGGSLRLSCAASGFTFYFNAMGWYRQAPGKERELVAGITSDGITYYADSVKGRFTISRDNANNTVYLQMNSLKPEDTAVYYCAARKLEWDIKNDYCGQGTQVTVSS	low polyreactivity

Reference: the nanobody polyreactivity screen of Harvey et al. (2022)
